Columns and labels:
[1] = target: human CD28 on cells (human) (UniProt P10747); assay: flow cytometry on human CD2+/CD8+ T cells, Alexa647 read-out
[2] = target: cynomolgus CD28 on cynomolgus T cells (cynomolgus) (UniProt Q0PDN3); assay: flow cytometry on cynomolgus CD2+/CD8+ T cells, Alexa647 read-out
[3] = target: cynomolgus CD28 on cynomolgus T cells (cynomolgus) (UniProt Q0PDN3); assay: flow cytometry on cynomolgus CD2+/CD4+ T cells, Alexa647 read-out
[4] = target: human CD28 on cells (human) (UniProt P10747); assay: flow cytometry on human CD2+/CD4+ T cells, Alexa647 read-out

Measured: EC50 (read off the curve)

REGN5705 (antibody)
50 pM: all assays above

— patent US20230322927A1
